Results taken from the supplement of paper PMC10899765.

Legend:
Details in all cases: 20 nM; 72 h
[1] = system: MCF10A; assay: percent viability (nuclei count relative to siNT); higher = more viable cells
Method: (§1)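 After 72 h, cells were fixed and stained with Hoechst and anti-fibrillarin, and nucleoli per nucleus were counted with CellProfiler. Values are plate-adjusted percent effect for the one-nucleolus and 5+ nucleoli phenotypes, normalised to siNT (0%) and to the positive controls siNOL11 or siKIF11 (100%), as the mean of biological triplicates. Percent viability is the nuclei count relative to siNT.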

[2] = system: MCF10A; assay: 5+ nucleoli phenotype percent effect (relative to siNT 0% and siKIF11 100%); higher = more cells with five or more nucleoli
Method: as §1

[3] = system: MCF10A; assay: one-nucleolus phenotype percent effect (relative to siNT 0% and siNOL11 100%); higher = more cells with one nucleolus (ribosome biogenesis inhibition)
Method: as §1

| Sequence | percent viability [1] [%] | 5+ nucleoli phenotype percent effect [2] [%] | one-nucleolus phenotype percent effect [3] [%] |
| --- | --- | --- | --- |
| UGGCGGGGGUAGAGCUGGCUGC [hsa-miR-6787-5p] | 23.7 | -19.2 | 30 |
| UGGCUCAGUUCAGCAGGAACAG [hsa-miR-24-3p] | 26.5 | -17 | 2.42 |
| UGGCUGCUUCCCUUGGUCUCCAG [hsa-miR-6762-3p] | 20.3 | -10.9 | 44 |
| UGGCUGUUGGAGGGGGCAGGC [hsa-miR-4687-3p] | 23.1 | -1.42 | 25.6 |
| UGGCUUCUCUUGCACACCCAG [hsa-miR-6815-3p] | 19.9 | -12.3 | 62.9 |
| UGGCUUUUAACUUUGAUGGC [hsa-miR-3119] | 17.4 | -21.8 | 56.7 |
| UGGGAAAGACAAACUCAGAGUU [hsa-miR-6733-5p] | 23.6 | 8.82 | 5.71 |
| UGGGAAAGAGAAAGAACAAGUA [hsa-miR-6739-5p] | 51.5 | 33 | -11.2 |
| UGGGAACGGGUUCCGGCAGACGCUG [hsa-miR-1292-5p] | 60.3 | -16.7 | 13.5 |
| UGGGAACUUAGUAGAGGUUUAA [hsa-miR-4471] | 26.7 | 7.89 | 5.31 |
| UGGGAAUGGGGGUAAGGGCC [hsa-miR-6716-5p] | 28.8 | -19.9 | 19.7 |
| UGGGAGAGAGGACUGUGAGGC [hsa-miR-8085] | 12.6 | -1.75 | 21.4 |
| UGGGAGAGCAGGGUAUUGUGGA [hsa-miR-6731-5p] | 6.77 | -22.2 | 43 |
| UGGGAGCCAUGAGGGUCUGUGC [hsa-miR-6827-5p] | 15.6 | -1.65 | 26.3 |
| UGGGAGCUAAGCUAUGGGUAU [hsa-miR-5591-5p] | 13.9 | -6.94 | 13.6 |
| UGGGAGCUGGACUACUUC [hsa-miR-4300] | 19.7 | 16.1 | 21.3 |
| UGGGAGGAGGGGAUCUUGGG [hsa-miR-7106-5p] | 34.9 | 21.2 | -7.27 |
| UGGGAGGGCGUGGAUGAUGGUG [hsa-miR-6785-5p] | 51.8 | 15 | -4.23 |
| UGGGAGGGGAGAGGCAGCAAGCA [hsa-miR-4728-5p] | 7 | -29.9 | 46 |
| UGGGAUCCAGACAGUGGGAGAA [hsa-miR-4713-3p] | 26 | 16.3 | -1.28 |
| UGGGAUGAGGGAUUGAAGUGGA [hsa-miR-5187-5p] | 25.8 | 24.8 | -17.7 |
| UGGGCAGGGGCUUAUUGUAGGAG [hsa-miR-6721-5p] | 21.3 | 22 | 19.5 |
| UGGGCCAGGGAGCAGCUGGUGGG [hsa-miR-4640-5p] | 54.9 | 7.66 | 15.3 |
| UGGGCCAUGCAUUUCUAGAACU [hsa-miR-6508-3p] | 40.2 | -35 | 41.6 |

| Sequence | percent viability [1] [%] | 5+ nucleoli phenotype percent effect [2] [%] | one-nucleolus phenotype percent effect [3] [%] |
| --- | --- | --- | --- |
| UGGGCGAGGGCGGCUGAGCGGC [hsa-miR-6729-5p] | 29 | -3.58 | 6.3 |
| UGGGCGAGGGGUGGGCUCUCAGAG [hsa-miR-4649-5p] | 45.5 | 19.2 | 1.85 |
| UGGGCGUAUCUGUAUGCUA [hsa-miR-585] | 39.1 | -5.6 | 41.1 |
| UGGGCUAAGGGAGAUGAUUGGGUA [hsa-miR-664b-5p] | 32.1 | 2.04 | 5.55 |
| UGGGCUCAGGGUACAAAGGUU [hsa-miR-4437] | 24.3 | -5.83 | 28.8 |
| UGGGCUGAGGGCAGGAGGCCUGU [hsa-miR-4656] | 9.2 | 20.8 | 22.2 |
| UGGGCUGCUGAGAAGGGGCA [hsa-miR-6829-5p] | 7.58 | 2.03 | 37.7 |
| UGGGCUGGCAGGGCAAGUGCUG [hsa-miR-4498] | 9.7 | -6.13 | 38.7 |
| UGGGGAAGGCGUCAGUGUCGGG [hsa-miR-4725-3p] | 28.1 | -3 | 26 |
| UGGGGAAGGCUUGGCAGGGAAGA [hsa-miR-6780b-5p] | 25.6 | -35.6 | 38 |
| UGGGGACGUAGCUGGCCAGACAG [hsa-miR-3191-3p] | 26.7 | 4.11 | 32.8 |
| UGGGGAGCGGCCCCCGGGUGGG [hsa-miR-1343-5p] | 86 | 48.5 | -31.1 |
| UGGGGAGCUGAGGCUCUGGGGGUG [hsa-miR-939-5p] | 82.5 | 17 | -7.29 |
| UGGGGAGGUGUGGAGUCAGCAU [hsa-miR-6825-5p] | 22.4 | 1.61 | 37.7 |
| UGGGGAUUUGGAGAAGUGGUGA [hsa-miR-4450] | 16.5 | 3.63 | 46.8 |
| UGGGGCGGAGCUUCCGGAG [hsa-miR-3180] | 25.6 | -11.7 | 10.4 |
| UGGGGCGGAGCUUCCGGAGGCC [hsa-miR-3180-3p] | 12.9 | 0.481 | 8 |
| UGGGGCGGGGCAGGUCCCUGC [hsa-miR-6816-5p] | 71.1 | 30.8 | -19 |
| UGGGGCUAGUGAUGCAGGACG [hsa-miR-4489] | 18.6 | -9.01 | 25.8 |
| UGGGGCUCAGCGAGUUU [hsa-miR-4283] | 17.3 | -10.7 | 24.3 |
| UGGGGGAGAUGGGGGUUGA [hsa-miR-6870-5p] | 32.7 | -6.86 | 15.2 |
| UGGGGGAGCCAUGAGAUAAGAGCA [hsa-miR-4723-5p] | 43.6 | 2.14 | 21.2 |
| UGGGGGAGGAAGGACAGGCCAU [hsa-miR-7111-5p] | 15.3 | -6.11 | 36.7 |
| UGGGGGAGUGCAGUGAUUGUGG [hsa-miR-5698] | 161 | 43.2 | -25.1 |
